In article PMC10194977 one finds relative PERK kinase activity (% of basal activity; ADP-Glo, SMAD3 substrate) with 0.87 μM calcineurin-B, % of PERK activity (relative to control; ADP-Glo, SMAD3 substrate) with 0.87 μM calcineurin-B, 1 h and EC50 of activation of PERK kinase activity (ATP consumption, ADP-Glo luminescence; 87 nM PERK, 0.26 μM SMAD3 as substrate, 50 μM ATP; RT, 2 h; three-fold serial dilution of calcineurin-B) data, which are given here for one substance.

The target of assay [1] is Recombinant human PERK (EIF2AK3, active catalytic subunit of PERK protein) (human).
For assay [2] the target is unchanged. The source holds these as a separate data set.
Assay [3] has the same target. The source holds these as a separate data set.

Turning to “full-length recombinant human calcineurin-B (from UniProt P63098 1-170) (natural protein)”, in assay [1], the relative PERK kinase activity (% of basal activity; ADP-Glo, SMAD3 substrate) with 0.87 μM calcineurin-B at reaction times of 15, 30, 60 and 120 min, RT; highest value at 120 min worked out at 128%. Further, in assay [2], the % of PERK activity (relative to control; ADP-Glo, SMAD3 substrate) with 0.87 μM calcineurin-B, 1 h at 37 °C (no significant activation) is 99.5% and the % of PERK activity (relative to control; ADP-Glo, SMAD3 substrate) with 0.87 μM calcineurin-B, 1 h at RT was 106%. Besides, in assay [3], the EC50 of activation of PERK kinase activity (ATP consumption, ADP-Glo luminescence; 87 nM PERK, 0.26 μM SMAD3 as substrate, 50 μM ATP; RT, 2 h; three-fold serial dilution of calcineurin-B) worked out at 2720 nM.
